{
  "source": "the RNAGym collection of RNA variant scans (doi:10.1021/acssynbio.7b00057)",
  "parents": {"B1": {"name": "Pistol ribozyme (parent)", "chain": "GGGUCGUUGUUCCAUAAUCGCGUGGAUAUGGCACGCAAGUUUCUACCGGGCACCGUAAAUGUCCGACUGGAGCCGUUCGGGCGGCUAUAAACAGACCUCAGGCCCGAAGCGUGGCGGCACCUGCCGCCGGUGGUAAAAAAGAUCGGAAGAGCACACGUCU"}},
  "data": [
    {"variants_of": "B1", "assay": "aptazyme ON/OFF ratio, guanine; higher = stronger switching; co-transcriptional cleavage with and without guanine", "values": [
      {"variant": "GGGUCGUGUGACUAUAAUCGCGUGGAUAUGGCACGCAAGUUUCUACCGGGCACCGUAAAUGUCCGACUGGAGCCGUUCGGGCGGCUAUAAACAGACCUCAGGCCCGAAGCGUGGCGGCACCUGCCGCCGGUGGUAAAAAAGAUCGGAAGAGCACACGUCU", "note": "[U8G G9U U10G U11A C13U]", "aptazyme ON/OFF ratio": 1.03},
      {"variant": "GGGUCGUGUGACGAUAAUCGCGUGGAUAUGGCACGCAAGUUUCUACCGGGCACCGUAAAUGUCCGACUGGAGCCGUUCGGGCGGCUAUAAACAGACCUCAGGCCCGAAGCGUGGCGGCACCUGCCGCCGGUGGUAAAAAAGAUCGGAAGAGCACACGUCU", "note": "[U8G G9U U10G U11A C13G]", "aptazyme ON/OFF ratio": 1.04},
      {"variant": "GGGUCGUGUGACAAUAAUCGCGUGGAUAUGGCACGCAAGUUUCUACCGGGCACCGUAAAUGUCCGACUGGAGCCGUUCGGGCGGCUAUAAACAGACCUCAGGCCCGAAGCGUGGCGGCACCUGCCGCCGGUGGUAAAAAAGAUCGGAAGAGCACACGUCU", "note": "[U8G G9U U10G U11A C13A]", "aptazyme ON/OFF ratio": 1.01},
      {"variant": "GGGUCGUGUGUGUAUAAUCGCGUGGAUAUGGCACGCAAGUUUCUACCGGGCACCGUAAAUGUCCGACUGGAGCCGUUCGGGCGGCUAUAAACAGACCUCAGGCCCGAAGCGUGGCGGCACCUGCCGCCGGUGGUAAAAAAGAUCGGAAGAGCACACGUCU", "note": "[U8G G9U U10G C12G C13U]", "aptazyme ON/OFF ratio": 1.02},
      {"variant": "GGGUCGUGUGCUAAUAAUCGCGUGGAUAUGGCACGCAAGUUUCUACCGGGCACCGUAAAUGUCCGACUGGAGCCGUUCGGGCGGCUAUAAACAGACCUCAGGCCCGAAGCGUGGCGGCACCUGCCGCCGGUGGUAAAAAAGAUCGGAAGAGCACACGUCU", "note": "[U8G G9U U10G U11C C12U C13A]", "aptazyme ON/OFF ratio": 1.03},
      {"variant": "GGGUCGUGUGCUGAUAAUCGCGUGGAUAUGGCACGCAAGUUUCUACCGGGCACCGUAAAUGUCCGACUGGAGCCGUUCGGGCGGCUAUAAACAGACCUCAGGCCCGAAGCGUGGCGGCACCUGCCGCCGGUGGUAAAAAAGAUCGGAAGAGCACACGUCU", "note": "[U8G G9U U10G U11C C12U C13G]", "aptazyme ON/OFF ratio": 1.03},
      {"variant": "GGGUCGUGUGAAGAUAAUCGCGUGGAUAUGGCACGCAAGUUUCUACCGGGCACCGUAAAUGUCCGACUGGAGCCGUUCGGGCGGCUAUAAACAGACCUCAGGCCCGAAGCGUGGCGGCACCUGCCGCCGGUGGUAAAAAAGAUCGGAAGAGCACACGUCU", "note": "[U8G G9U U10G U11A C12A C13G]", "aptazyme ON/OFF ratio": 1.03},
      {"variant": "GGGUCGUGUGAAAAUAAUCGCGUGGAUAUGGCACGCAAGUUUCUACCGGGCACCGUAAAUGUCCGACUGGAGCCGUUCGGGCGGCUAUAAACAGACCUCAGGCCCGAAGCGUGGCGGCACCUGCCGCCGGUGGUAAAAAAGAUCGGAAGAGCACACGUCU", "note": "[U8G G9U U10G U11A C12A C13A]", "aptazyme ON/OFF ratio": 1.04},
      {"variant": "GGGUCGUGUGAAUAUAAUCGCGUGGAUAUGGCACGCAAGUUUCUACCGGGCACCGUAAAUGUCCGACUGGAGCCGUUCGGGCGGCUAUAAACAGACCUCAGGCCCGAAGCGUGGCGGCACCUGCCGCCGGUGGUAAAAAAGAUCGGAAGAGCACACGUCU", "note": "[U8G G9U U10G U11A C12A C13U]", "aptazyme ON/OFF ratio": 1.03},
      {"variant": "GGGUCGUGUGCAUAUAAUCGCGUGGAUAUGGCACGCAAGUUUCUACCGGGCACCGUAAAUGUCCGACUGGAGCCGUUCGGGCGGCUAUAAACAGACCUCAGGCCCGAAGCGUGGCGGCACCUGCCGCCGGUGGUAAAAAAGAUCGGAAGAGCACACGUCU", "note": "[U8G G9U U10G U11C C12A C13U]", "aptazyme ON/OFF ratio": 1.03},
      {"variant": "GGGUCGUGUGCAAAUAAUCGCGUGGAUAUGGCACGCAAGUUUCUACCGGGCACCGUAAAUGUCCGACUGGAGCCGUUCGGGCGGCUAUAAACAGACCUCAGGCCCGAAGCGUGGCGGCACCUGCCGCCGGUGGUAAAAAAGAUCGGAAGAGCACACGUCU", "note": "[U8G G9U U10G U11C C12A C13A]", "aptazyme ON/OFF ratio": 1.02},
      {"variant": "GGGUCGUGUGCAGAUAAUCGCGUGGAUAUGGCACGCAAGUUUCUACCGGGCACCGUAAAUGUCCGACUGGAGCCGUUCGGGCGGCUAUAAACAGACCUCAGGCCCGAAGCGUGGCGGCACCUGCCGCCGGUGGUAAAAAAGAUCGGAAGAGCACACGUCU", "note": "[U8G G9U U10G U11C C12A C13G]", "aptazyme ON/OFF ratio": 1.02},
      {"variant": "GGGUCGUGUGCACAUAAUCGCGUGGAUAUGGCACGCAAGUUUCUACCGGGCACCGUAAAUGUCCGACUGGAGCCGUUCGGGCGGCUAUAAACAGACCUCAGGCCCGAAGCGUGGCGGCACCUGCCGCCGGUGGUAAAAAAGAUCGGAAGAGCACACGUCU", "note": "[U8G G9U U10G U11C C12A]", "aptazyme ON/OFF ratio": 1.02},
      {"variant": "GGGUCGUGUGCUCAUAAUCGCGUGGAUAUGGCACGCAAGUUUCUACCGGGCACCGUAAAUGUCCGACUGGAGCCGUUCGGGCGGCUAUAAACAGACCUCAGGCCCGAAGCGUGGCGGCACCUGCCGCCGGUGGUAAAAAAGAUCGGAAGAGCACACGUCU", "note": "[U8G G9U U10G U11C C12U]", "aptazyme ON/OFF ratio": 1.04},
      {"variant": "GGGUCGUGUGCGCAUAAUCGCGUGGAUAUGGCACGCAAGUUUCUACCGGGCACCGUAAAUGUCCGACUGGAGCCGUUCGGGCGGCUAUAAACAGACCUCAGGCCCGAAGCGUGGCGGCACCUGCCGCCGGUGGUAAAAAAGAUCGGAAGAGCACACGUCU", "note": "[U8G G9U U10G U11C C12G]", "aptazyme ON/OFF ratio": 1.03},
      {"variant": "GGGUCGUGUGCGAAUAAUCGCGUGGAUAUGGCACGCAAGUUUCUACCGGGCACCGUAAAUGUCCGACUGGAGCCGUUCGGGCGGCUAUAAACAGACCUCAGGCCCGAAGCGUGGCGGCACCUGCCGCCGGUGGUAAAAAAGAUCGGAAGAGCACACGUCU", "note": "[U8G G9U U10G U11C C12G C13A]", "aptazyme ON/OFF ratio": 1.04},
      {"variant": "GGGUCGUGUGCGGAUAAUCGCGUGGAUAUGGCACGCAAGUUUCUACCGGGCACCGUAAAUGUCCGACUGGAGCCGUUCGGGCGGCUAUAAACAGACCUCAGGCCCGAAGCGUGGCGGCACCUGCCGCCGGUGGUAAAAAAGAUCGGAAGAGCACACGUCU", "note": "[U8G G9U U10G U11C C12G C13G]", "aptazyme ON/OFF ratio": 1.03},
      {"variant": "GGGUCGUGUGCGUAUAAUCGCGUGGAUAUGGCACGCAAGUUUCUACCGGGCACCGUAAAUGUCCGACUGGAGCCGUUCGGGCGGCUAUAAACAGACCUCAGGCCCGAAGCGUGGCGGCACCUGCCGCCGGUGGUAAAAAAGAUCGGAAGAGCACACGUCU", "note": "[U8G G9U U10G U11C C12G C13U]", "aptazyme ON/OFF ratio": 1.02}
    ]}
  ]
}
